Assay [1] has as its target T1, rat SNAP-tagged mGlu2 receptor (wild-type rat mGlu2 subunit with an HA-tag and a SNAP inserted just after the … (rat, UniProt P31421 19-872, SNAP tag labelled with SNAP-Lumi4-Tb in the TR-FRET binding assay)).
T1 construct: whole, on cells; Transiently transfected HEK293 cells; also called SNAP-mGlu2; mGluR2; not shown: HA-tag inserted just after the signal peptide; SNAP tag inserted just after the signal peptide
Description: TR-FRET saturation binding on HEK293 cells with Lumi4-Tb-labelled rat SNAP-mGlu2, anti-6His-d2; active conformation (1 uM LY379268). The protocol: (§1) Each datapoint represents the mean±s.d. of an individual experiment performed in triplicate.
(§2) Binding experiments by TR-FRET. HEK293 cells (ATCC CRL-1573) were transfected with rat SNAP-tagged mGlu2 receptors (Maurel et al. Nature Methods 2008). 24 h after transfection, cells were labeled in 150 mm cell culture plate with 100 nM SNAP-Lumi4Tb in DMEM-GlutaMAX for 1 h at 37° C., and then washed 3 times with Krebs buffer (10 mM Hepes pH7.4, 146 mM NaCl, 4.2 mM KCl, 1 mM CaCl2, 0.5 mM MgCl2, 5.6 mM glucose and bovine serum albumin 0.1%). Cells were detached using cell dissociation buffer (Sigma aldrich) transferred at 10 000 cells per well in a white 384-well plate (Greiner bio-one, PS, F-bottom, small volume, Hibase, medium binding). Increasing concentration of His-tagged nanobodies together with either 1 μM LY379268 (Tocris, Bio-techne, France) or 1 μM LY341495 (Tocris, Bio-techne, France) and with 200 nM of anti-6His-d2 (Tocris, Bio-techne, France) were applied on Lumi4Tb-labeled cells in a final volume of 20 μL and incubated overnight at 20° C. FRET signal was determined by measuring the sensitized acceptor emission (665 nm) and Tb donor emission (620 nm) using a 50 μs delay and 450 us integration time upon excitation at 337 nm on a PHERAstar FS plate-reader (BMG LabTech, Ortenberg, Germany). TR-FRET (or HTRF) ratio (665 nm/620 nm×10⁴, Cisbio patent 8 U.S. Pat. No. 5,527,684) was calculated for preventing interferences due to medium variability and chemical compound or to normalize experiments when using cells expressing different receptor levels.
(In general: In TR-FRET formats the signal depends on donor and acceptor labels being close together.)

The target of assay [2] is T1, rat SNAP-tagged mGlu2 receptor …. Kind of assay: cell-based or functional assay.
Assay [3] shares this target. Description: apparent affinity, TR-FRET saturation binding on HEK293 cells with SNAP-mGlu2, in the presence of agonist LY379268 1 uM. The method, then: as §2, with “Increasing concentration of His-tagged nanobodies together with either 1 μM LY379268 (Tocris, Bio-techne, France) or 1 μM LY341495 (Tocris, Bio-techne, France) and with 200 nM of anti-6His-d2 (Tocris, Bio-techne, France) were applied on Lumi4Tb-labeled cells in a final volume of 20 μL and incubated overnight at 20° C.” left out, “levels. […]” for “levels.”

Assay [4] has the same target. Description: cell-based or functional assay. This is another data set of the same source.
Assay [5] shares this target. Kind of assay: TR-FRET saturation binding on HEK293 cells with SNAP-mGlu2, in the presence of agonist LY379268 1 uM; reference IGF1168. The protocol:
as §2, with “Increasing concentration of His-tagged nanobodies together with either 1 μM LY379268 (Tocris, Bio-techne, France) or 1 μM LY341495 (Tocris, Bio-techne, France) and with 200 nM of anti-6His-d2 (Tocris, Bio-techne, France) were applied on Lumi4Tb-labeled cells in a final volume of 20 μL and incubated overnight at 20° C.” left out, “levels. […]” for “levels.”

Assay [6] shares this target. Description: TR-FRET saturation binding on HEK293 cells with Lumi4-Tb-labelled rat SNAP-mGlu2, anti-6His-d2; inactive conformation (1 uM LY341495). The method, then:
as §1, §2

The target of assay [7] is T2, mouse mGlu2 receptor in brain tissue sections of wild-type C57BL/6J mice (mouse, UniProt Q14BI2 19-872).
T2 construct: whole, on cells; Endogenous receptor in fixed tissue sections; mGlu2-/- mouse sections were the negative control
Description: ex vivo immunohistofluorescence on mouse brain sections; no labeling in sections from mGlu2-/- mouse. The protocol:
Histological processing of brains. Wild-type C57BL/6J mice were purchased from Janvier Labs and brains from mGlu2−/− mice were kindly provided by Dr. Gonzalez-Maeso. Mice were anesthetized (Euthasol Vet 8%, Alcyon, Pau, France) and sacrificed by a cardiac perfusion of 4% paraformaldehyde (PFA). Brains were extracted and fixed in a 4% PFA solution (Euromedex, Souffelweyersheim, France) overnight at 4° C. Brains were rinsed in PBS and cryoprotected in a 30% sucrose solution for 4 days at 4° C. Brains were then included in OCT (Tissue-Tek, Sakura Finetek, Villeneuve d′Asq, France), quickly frozen in acetone chilled on dry ice and conserved at −80° C. until use. Frozen brains included in OCT, were put at −20° C. 24 h prior cryo-sectioning. They were then mounted on a cryostat (Leica, Nanterre, France) and 16 um coronal or sagittal sections were performed and directly mounted on Superfrost Plus glass slides (Microm) and kept at −20° C., until use. For immunohistofluorescence experiments, coronal and sagittal brain tissue sections of WT and mGlu2^{-/-} mice were blocked 1 h at 25° C. with a blocking solution (3% BSA, 0.1% Triton X100 in PBS) and incubated with IGF1202-d2 (200 nM), overnight at 4° C., to label mGlu2 receptors. Sections were washed with PBS with distilled water and mounted using […]

T1 sequence (P31421 19-872): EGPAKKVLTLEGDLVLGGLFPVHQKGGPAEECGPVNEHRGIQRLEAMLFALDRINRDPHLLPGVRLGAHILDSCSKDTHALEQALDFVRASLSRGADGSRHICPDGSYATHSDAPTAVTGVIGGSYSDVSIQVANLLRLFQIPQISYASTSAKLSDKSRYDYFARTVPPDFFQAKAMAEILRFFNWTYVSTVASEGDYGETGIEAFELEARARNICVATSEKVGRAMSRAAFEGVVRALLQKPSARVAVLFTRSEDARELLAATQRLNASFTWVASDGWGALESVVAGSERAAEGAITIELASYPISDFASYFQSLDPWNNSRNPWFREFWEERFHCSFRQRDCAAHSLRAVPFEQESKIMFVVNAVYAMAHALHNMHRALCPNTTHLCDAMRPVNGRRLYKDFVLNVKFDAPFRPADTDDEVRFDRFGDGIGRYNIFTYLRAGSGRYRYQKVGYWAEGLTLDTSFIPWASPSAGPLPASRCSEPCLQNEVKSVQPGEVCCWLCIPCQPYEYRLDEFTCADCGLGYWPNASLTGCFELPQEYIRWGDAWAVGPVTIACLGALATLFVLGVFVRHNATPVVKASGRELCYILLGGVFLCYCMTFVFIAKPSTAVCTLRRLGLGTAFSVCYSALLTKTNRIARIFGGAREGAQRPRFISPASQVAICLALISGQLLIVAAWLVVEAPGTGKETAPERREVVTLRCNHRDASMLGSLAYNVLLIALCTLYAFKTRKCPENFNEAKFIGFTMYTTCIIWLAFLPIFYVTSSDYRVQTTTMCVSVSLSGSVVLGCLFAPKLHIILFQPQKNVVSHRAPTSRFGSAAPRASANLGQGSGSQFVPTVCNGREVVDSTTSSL
T2 sequence (Q14BI2 19-872): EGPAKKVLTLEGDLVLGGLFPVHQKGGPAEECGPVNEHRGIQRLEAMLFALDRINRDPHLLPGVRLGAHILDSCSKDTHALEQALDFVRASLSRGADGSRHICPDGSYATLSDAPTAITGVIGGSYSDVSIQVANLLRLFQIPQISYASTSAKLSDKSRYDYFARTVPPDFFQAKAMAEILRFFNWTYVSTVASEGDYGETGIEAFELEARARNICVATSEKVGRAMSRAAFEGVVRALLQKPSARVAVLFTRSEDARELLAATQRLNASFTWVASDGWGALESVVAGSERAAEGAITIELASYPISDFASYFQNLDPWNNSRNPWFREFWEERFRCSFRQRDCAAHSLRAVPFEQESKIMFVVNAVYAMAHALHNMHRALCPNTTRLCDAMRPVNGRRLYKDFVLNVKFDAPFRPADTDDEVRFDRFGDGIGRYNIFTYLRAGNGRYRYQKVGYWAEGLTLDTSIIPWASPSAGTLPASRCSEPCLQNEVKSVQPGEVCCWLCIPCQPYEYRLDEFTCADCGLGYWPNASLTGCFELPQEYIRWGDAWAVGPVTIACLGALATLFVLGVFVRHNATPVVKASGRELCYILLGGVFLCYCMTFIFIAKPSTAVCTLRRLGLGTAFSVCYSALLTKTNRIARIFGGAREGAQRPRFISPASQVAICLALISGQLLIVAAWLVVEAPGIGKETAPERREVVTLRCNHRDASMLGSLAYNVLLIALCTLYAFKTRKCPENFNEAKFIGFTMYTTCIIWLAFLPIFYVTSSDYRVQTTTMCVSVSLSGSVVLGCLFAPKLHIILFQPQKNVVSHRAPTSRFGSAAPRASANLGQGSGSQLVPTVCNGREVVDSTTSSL

B1: IGF-1262 (IGF-1168 HcAb IGF-1168) (VHH)
chain: QVQLVQSGGGLVQAGGSLRLSCAASVRFFSINTMGWYRQAPGKQRELVADITSSGSTNYADSGKGRFTISRDNAKNTVYLQMNRLKPEDTAVYYCHADYKYTTHNTAWGQGTQVTVSSEPKIPQPQPKPQPQPQPQPQPKPQPKPEPQVQLVQSGGGLVQAGGSLRLSCAASVRFFSINTMGWYRQAPGKQRELVADITSSGSTNYADSGKGRFTISRDNAKNTVYLQMNRLKPEDTAVYYCHADYKYTTHNTAWGQGTQVTVSSLEHHHHHH
On to B1, for which the pKd in assay [1] is 8.23 -log10 M. Besides, the “pEC50 of the PAM effect on G protein coupling (IP1 accumulation with 0.6 nM LY379268, EC20)” value (“pEC50 of the PAM effect” below) in assay [2] was 7.2 -log10 M.

B2: IGF-1202 (IGF-1168 HcAb IGF-1159), biparatopic IGF1202-tag6xHIS (VHH)
chain: QVQLVQSGGGLVQAGGSLRLSCAASVRFFSINTMGWYRQAPGKQRELVADITSSGSTNYADSGKGRFTISRDNAKNTVYLQMNRLKPEDTAVYYCHADYKYTTHNTAWGQGTQVTVSSEPKIPQPQPKPQPQPQPQPQPKPQPKPEPQVQLVQSGGGLVQAGGSLRLSCAASGRTFSSFAMAWFRQAPGKEREFVAAISWSGSTGHADSVKGRFTITRDNAKNTVFLQMNSLKPEDTAVYYCALGKGSSYYYSPSGYDYWGQGTQVTVSSLEHHHHHH
Regarding B2, in assay [3], the Kd came to 0.3 nM. For the same molecule, the “pEC50, PAM potency (IP1 accumulation)” value in assay [4] is 9.16 -log10 M. In addition, in assay [5], the “fold increase in the apparent affinity compared to IGF1168” value stood at 10 fold. The pKd in assay [1] is 9.27 -log10 M; in assay [6], 8.87 -log10 M. In addition, the “pEC50 of the PAM effect” value in assay [2] was 8.81 -log10 M.

B3: IGF1202-d2 (red-labeled IGF1202) (VHH)
chain: QVQLVQSGGGLVQAGGSLRLSCAASVRFFSINTMGWYRQAPGKQRELVADITSSGSTNYADSGKGRFTISRDNAKNTVYLQMNRLKPEDTAVYYCHADYKYTTHNTAWGQGTQVTVSSEPKIPQPQPKPQPQPQPQPQPKPQPKPEPQVQLVQSGGGLVQAGGSLRLSCAASGRTFSSFAMAWFRQAPGKEREFVAAISWSGSTGHADSVKGRFTITRDNAKNTVFLQMNSLKPEDTAVYYCALGKGSSYYYSPSGYDYWGQGTQVTVSSLEHHHHHH
modifications: d2 fluorophore coupled with d2-NHS, conditions set for 2 to 3 fluorophores per nanobody; sites not stated
notes: also called red-labled IGF1202
B3: in assay [7], the binding result is “binds”.

B4: IGF-1251 (IGF-1159 GS IGF-1168) (VHH)
chain: QVQLVQSGGGLVQAGGSLRLSCAASGRTFSSFAMAWFRQAPGKEREFVAAISWSGSTGHADSVKGRFTITRDNAKNTVFLQMNSLKPEDTAVYYCALGKGSSYYYSPSGYDYWGQGTQVTVSSGGGGSGGGGSGGGGSQVQLVQSGGGLVQAGGSLRLSCAASVRFFSINTMGWYRQAPGKQRELVADITSSGSTNYADSGKGRFTISRDNAKNTVYLQMNRLKPEDTAVYYCHADYKYTTHNTAWGQGTQVTVSSLEHHHHHH
notes: Bivalent biparatopic nanobody, two VHH in tandem
Consider B4, for which the pKd was 8.99 -log10 M in assay [1] and 8.54 -log10 M in assay [6]. For the same molecule, the “pEC50 of the PAM effect” value in assay [2] was 7.65 -log10 M.

B5: IGF-1261 (IGF-1168 GS IGF-1168) (VHH)
chain: QVQLVQSGGGLVQAGGSLRLSCAASVRFFSINTMGWYRQAPGKQRELVADITSSGSTNYADSGKGRFTISRDNAKNTVYLQMNRLKPEDTAVYYCHADYKYTTHNTAWGQGTQVTVSSGGGGSGGGGSGGGGSQVQLVQSGGGLVQAGGSLRLSCAASVRFFSINTMGWYRQAPGKQRELVADITSSGSTNYADSGKGRFTISRDNAKNTVYLQMNRLKPEDTAVYYCHADYKYTTHNTAWGQGTQVTVSSLEHHHHHH
B5: the pKd in assay [1] was 8.51 -log10 M. Besides, the “pEC50 of the PAM effect” value in assay [2] is 7.62 -log10 M.

B6: IGF-1252 (IGF-1159 HcAb IGF-1168) (VHH)
chain: QVQLVQSGGGLVQAGGSLRLSCAASGRTFSSFAMAWFRQAPGKEREFVAAISWSGSTGHADSVKGRFTITRDNAKNTVFLQMNSLKPEDTAVYYCALGKGSSYYYSPSGYDYWGQGTQVTVSSEPKIPQPQPKPQPQPQPQPQPKPQPKPEPQVQLVQSGGGLVQAGGSLRLSCAASVRFFSINTMGWYRQAPGKQRELVADITSSGSTNYADSGKGRFTISRDNAKNTVYLQMNRLKPEDTAVYYCHADYKYTTHNTAWGQGTQVTVSSLEHHHHHH
notes: as for B4
In the case of B6, the pKd in assay [1] is 8.77 -log10 M; in assay [6], 8.49 -log10 M. Besides, the “pEC50 of the PAM effect” value in assay [2] is 7.94 -log10 M.

B7: IGF-1168 nanobody (VHH)
VHH: QVQLVQSGGGLVQAGGSLRLSCAASVRFFSINTMGWYRQAPGKQRELVADITSSGSTNYADSGKGRFTISRDNAKNTVYLQMNRLKPEDTAVYYCHADYKYTTHNTAWGQGTQVTVSS
notes: PAM nanobody, mGlu2 specific; not shown: His tag (nanobodies in the assay are His-tagged)
For the molecule B7, the Kd in assay [3] amounted to 4.93 nM. For the same molecule, the “pEC50, PAM potency (IP1 accumulation)” value in assay [4] was 7.22 -log10 M.

B8: IGF-1201 (IGF-1168 GS IGF-1159) (VHH)
chain: QVQLVQSGGGLVQAGGSLRLSCAASVRFFSINTMGWYRQAPGKQRELVADITSSGSTNYADSGKGRFTISRDNAKNTVYLQMNRLKPEDTAVYYCHADYKYTTHNTAWGQGTQVTVSSGGGGSGGGGSGGGGSQVQLVQSGGGLVQAGGSLRLSCAASGRTFSSFAMAWFRQAPGKEREFVAAISWSGSTGHADSVKGRFTITRDNAKNTVFLQMNSLKPEDTAVYYCALGKGSSYYYSPSGYDYWGQGTQVTVSSLEHHHHHH
notes: as for B4
As for B8, the values for the pKd in assay [1] and in assay [6] were 9.34 -log10 M and 8.95 -log10 M, respectively. Moreover, the “pEC50 of the PAM effect” value in assay [2] is 8.25 -log10 M.

The values are drawn from US20250376518A1 (UNIVERSITE DE MONTPELLIER, published 2025).
